# Reference: the supplement of paper PMC11780869
# Tested on: Bacillus subtilis
# Assay: cleaved RNA product abundance (RNA/gDNA barcode ratio) relative to median wild-type variant (ratio to wild type); higher = more accumulation of the downstream cleavage product
# Method in brief: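 The B. subtilis chromosome carried reporter mRNAs, truncated aprE or tetM, containing barcoded RNase Y cleavage-site windows mutagenized using oligos with a 9% error rate. After growth in LB at 37°C from OD600 0.0003 to 0.3, cleaved RNA was gel-selected, reverse transcribed and barcode-sequenced next to genomic DNA barcodes, with UMI collapsing. Each construct's RNA:gDNA barcode ratio was scaled to the median construct with the unmutated site. That scaled ratio is reported as cleaved product abundance.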
# [1] = experiment (reporter, strain, medium): exp 4a: truncated aprE reporter, strain BJT201 with 2% xylose (RNase J1 expressed), cleavage site: cggR-gapA (positions -7 to +36 mutated)
# [2] = experiment (reporter, strain, medium): exp 8a: truncated aprE reporter, strain BJT201 with 2% xylose (RNase J1 expressed), cleavage site: glnRA (positions -5 to +31 mutated)
# [3] = experiment (reporter, strain, medium): exp 2b: truncated aprE reporter, strain BJT200, cleavage site: cggR-gapA (positions -7 to +36 mutated)
# [4] = experiment (reporter, strain, medium): exp 6: tetM reporter, strain 168, cleavage site: cggR-gapA (positions -7 to +36 mutated)
Sequence,cleaved RNA product abundance [1],other results
ACAGACGAAGGAGCCGCAAGAAGTTATTAAGGGATTAATAATCCCTCAATATAAATATCTCTCACTTATTTAAAG,0.71,
ACAGACGAAGGAGCCGCAAAGAAGTTAATAAGGGATGAATGATCCCTCAATATAAATATCTCTCACTTATTTAAA,0.284,
ACAGACGAAGGAGCCGCTAAGAAGTTATTAAGGGATGAATAATGCCTCAATATAAATATCTCTCACTTATTTAAA,0.154,
CGACATGTCCCGCTTCTTTCATTAATCCGTTAGTTACTGTTTTGCTATATACATTTACCTTTTAAGAGGAGGAAT,,cleaved RNA product abundance [2]: 0.365
ACAGACGAAGGAGCCGCCAAGAAGTTATTCAGGGATGAATAATCCCTCAATATAAATATCTCTCACTTATTTAAA,0.506,
ACAGACGAAGGAGCCGCAAAGGAGTTATTAAGGGATGAATAATCCCTCACTATAAATATCTCTCACTTATTTAAA,0.302,
ACAGACGAAGGAGCCGCAAAGAAGTTATTAAGGGATGAATAATCCCTCACTATAAATAACTCTCACTTATTTAAA,0.285,cleaved RNA product abundance [3]: 0.175
ACAGACGAAGGAGCCGCAAAGAAGTTATTAAGGGATGAATGATCCCTCAATCTAAATATCTCTCACTTATTTAAA,0.0934,
ACAGACGAAGGAGCCGCAAAGAAGTTATTAAGGGATAAAAAATCCCTCAATATAAATATCTCTCACTTATTTAAA,0.625,
CGACATGTCCCGCTTCTTTCATTAATCCGTTAGCAACTGTTTTGCTATATGTATTTACCTTTTAAGAGGAGGAAT,,cleaved RNA product abundance [2]: 0.45
CGACATGTCCCGCTTCTTTCATTATTCCGTTAGCAACTGTTTTGCTACATACATTTACCTTTTAAGAGGAGGAAT,,cleaved RNA product abundance [2]: 0.626
CGACATGTCCCGCTTCTTTCATTAATCCGTTATCAACTGTTTTGCTATTTACATTTACCTTTTAAGAGGAGGAAT,,cleaved RNA product abundance [2]: 0.111
CGACATGTCCCGCTTCTTTCATTAATCGGTTAGCAACTGTTTTGCTATAAACATTTACCTTTTAAGAGGAGGAAT,,cleaved RNA product abundance [2]: 0.876
ACAGACGAAGGAGCCGCAAAGAAGTTATTCAGGGATGAATAATCCCTCAATATAAAAATCTCTCACTTATTTAAA,0.461,
CGACATGTCCCGCTTCTTTCATTAATCCGTTAGCAATTGTTTTGCTATATACAATTACCTTTTAAGAGGAGGAAT,,cleaved RNA product abundance [2]: 1.24
ACAGACGAAGGAGCCGCAAAGAAGTTATTAAGGGACGAATAATCCCTCAATCTAAATATCTCTCACTTATTTAAA,0.0944,
ACAGACGAAGGAGCCGCAAAGAAGTTATGAAGGGATGAATAATCGCTCAATATAAATATCTCTCACTTATTTAAA,0.0808,
CGACATGTCCCGCTTCTTTCATTAATCCGTTAGAAACTGTTTTGCTATATACATTTACATTTTAAGAGGAGGAAT,,cleaved RNA product abundance [2]: 0.34
CGACATGTCCCGCTTCTTTCATTAATCCGTTAGCAACTGTTTTGTTATATACATTTATCTTTTAAGAGGAGGAAT,,cleaved RNA product abundance [2]: 0.458
ACAGACGAAGGAGCCGCAAATAAGTTATTAAGGGATGAATAATCCCACAATATAAATAACTCTCACTTATTTAAA,0.22,
ACAGACGAAGGAGCCGCAAAGAAATTATTCAGGGATGAATAATCCCTCAATATAAATATCTCTCACTTATTTAAA,0.747,cleaved RNA product abundance [3]: 0.575

Sequence,cleaved RNA product abundance [1],other results
ACAGACGAAGGAGCCGCACAGAAGTTATTAACGGATGAATAATCCCTCAATATAAATATCTCTCACTTATTTAAA,0.197,cleaved RNA product abundance [3]: 0.121
ACAGACGAAGGAGCCGCAAAGAAGTTATAAAGGGATGAATAATCCCTCAATATTAATATCTCTCACTTATTTAAA,0.105,
CGACATGTCCCGCTTCTTTCATTAATCCGTTAGCAAATGATTTGCTATATACATTTACCTTTTAAGAGGAGGAAT,,cleaved RNA product abundance [2]: 1.28
CGACATGTCCCGCTTCTTTCATTAATCCGTTAGCAACTGTTTTGCTATATACATATACGTTTTAAGAGGAGGAAT,,cleaved RNA product abundance [2]: 1.29
ACAGACGAAGGAGCCGCAAAGAAGTTATTAAGTGAAGAATAATCCCTCAATATAAATATCTCTCACTTATTTAAA,0.0841,
ACAGACGAAGGAGCCGCAAAGAAGTTAATAACGGATGAATAATCCCTCAATATAAATATCTCTCACTTATTTAAA,0.177,
ACAGACGAAGGAGCCGCACAGAAGTTAATAAGGGATGAATAATCCCTCAATATAAATATCTCTCACTTATTTAAA,0.309,
ACAGACGAAGGAGCCGCAAAGAAGTTATTAAGGGATTAATAATCCCTCAATATAAATATATCTCACTTATTTAAA,1.23,
ACAGACGAAGGAGCCGCAAAGAAGTTAATAAGGGATGAATAATCCCTCAATATAAATAGCTCTCACTTATTTAAA,0.293,
ACAGACGAAGGAGCCGCAAAGAAGTTATGAAGGGATTAATAATCCCTCAATATAAATATCTCTCACTTATTTAAA,0.476,cleaved RNA product abundance [3]: 0.402
ACAGACGAAGGAGCCGCACAGAAGTTATTAAGGGATTAATAATCCCTCAATATAAATATCTCTCACTTATTTAAA,0.962,
ACAGACGAAGGAGCCGCAAAGAAGGTATTAAGGTATGAATAATCCCTCAATATAAATATCTCTCACTTATTTAAA,0.23,
CGACATGTCCCGCTTCTTTCATTAATCCGTTAGCAATTGTTTTGCTATATACATTTGCCTTTTAAGAGGAGGAAT,,cleaved RNA product abundance [2]: 0.188
ACAGACGAAGGAGCCGCAAAGAAGTTATTAAGGGATGAATAATCCCCCAATATAAATATCTCTCACTTATTTAAA,0.36,cleaved RNA product abundance [3]: 0.285; cleaved RNA product abundance [4]: 0.457
ACAGACGAAGGAGCCGCAAAGAAGTTATTAAGGGATGCACAATCCCTCAATATAAATATCTCTCACTTATTTAAA,0.547,
ACAGACGAAGGAGCCGCAAAGAAGTTATTATGGGATGAATAATCCATCAATATAAATATCTCTCACTTATTTAAA,0.236,
ACAGACGAAGGAGCCGCAAAGAAGTTATTAAGGGATAAATAATCCCTCAATATATATATCTCTCACTTATTTAAA,0.916,
ACAGACGAAGGAGCCGCAAAGAAGTTATTAAGGTATGAATAAACCCTCAATATAAATATCTCTCACTTATTTAAA,0.124,cleaved RNA product abundance [3]: 0.0972
CGACATGTCCCGCTTCTTTCATTAATCCGTTAGCAACTGTTTTGCTACATACATTAACCTTTTAAGAGGAGGAAT,,cleaved RNA product abundance [2]: 0.434
ACAGACGAAGGAGCCGCAAAGGAGTTATTAAGTGATGAATAATCCCTCAATATAAATATCTCTCACTTATTTAAA,0.162,
CGACATGTCCCGCTTCTTTCATTAAACCGTTAGCAACTGTTTTTCTATATACATTTACCTTTTAAGAGGAGGAAT,,cleaved RNA product abundance [2]: 0.464

Sequence,cleaved RNA product abundance [1],other results
ACAGACGAAGGAGCCGCAAAGAAGTTATTAAGGGATGAATAATCCCTAAAGATAAATATCTCTCACTTATTTAAA,,cleaved RNA product abundance [3]: 0.259
ACAGACGAAGGAGCCGCAAAGAAGTTATTAAGGTATGAATAATCCCTAAATATAAATATCTCTCACTTATTTAAA,0.168,cleaved RNA product abundance [3]: 0.109
ACAGACGAAGGAGCCGCAAAGAAGTTATTTAGGGATGAATAATCCTTCAATATAAATATCTCTCACTTATTTAAA,0.531,
ACAGACGAAGGAGCCGCAAAGAAGTTATTAAGGGATGAAAAATCACTCAATATAAATATCTCTCACTTATTTAAA,0.101,cleaved RNA product abundance [3]: 0.113
ACAGACGAAGGAGCCGCAAAAAAGTTATTAAGGGATGAATACTCCCTCAATATAAATATCTCTCACTTATTTAAA,0.58,cleaved RNA product abundance [3]: 0.519
ACAGACGAAGGAGCCGCAAAAAAGTTATTAAGGGATGAATAATCCCTCATTATAAATATCTCTCACTTATTTAAA,0.417,cleaved RNA product abundance [3]: 0.293
ACAGACGAAGGAGCCGCAAAGAAGTTATTTAGGTATGAATAATCCCTCAATATAAATATCTCTCACTTATTTAAA,0.165,cleaved RNA product abundance [3]: 0.121
ACAGACGAAGGAGCCGCACAGAAGTTCTTAAGGGATGAATAATCCCTCAATATAAATATCTCTCACTTATTTAAA,0.275,
CGACATGTCCCGCTTCTTTCATTAATTCGTTAGCAACTGCTTTGCTATATACATTTACCTTTTAAGAGGAGGAAT,,cleaved RNA product abundance [2]: 0.6
ACAGACGAAGGAGCCGCAAAGAAGTTATTAAGGGATGCATAATCCCTCAATATAAATATCTCTCACTTATTTAAA,0.844,cleaved RNA product abundance [3]: 0.856; cleaved RNA product abundance [4]: 1.15
ACAGACGAAGGAGCCGCAAAGAAGTTATTAAGTGATGTATAATCCCTCAATATAAATATCTCTCACTTATTTAAA,0.144,cleaved RNA product abundance [3]: 0.088
ACAGACGAAGGAGCCGCAAAGAAGTTATTAAGGGATGAATAATCCCTTAATATAAATAACTCTCACTTATTTAAA,0.433,
CGACATGTCCCGCTTCTTTCATTAATCCGTTAGCATCTGTTTTGCTATATACATTTAACTTTTAAGAGGAGGAAT,,cleaved RNA product abundance [2]: 0.999
ACAGACGAAGGAGCCGCAAAAAAGTTATTAATGGCTGAATAATCCCTCAATATAAATATCTCTCACTTATTTAAA,0.0935,
ACAGACGAAGGAGCCGCAAGGAAGTTATTAAGGGATGAAAAATCCCTCAATATAAATATCTCTCACTTATTTAAA,0.663,
CGACATGTCCCGCTTCTTTCATTAATCCGTAAGCAACTGTTTTGCTATATACATTAACCTTTTAAGAGGAGGAAT,,cleaved RNA product abundance [2]: 0.756
ACAGACGAAGGAGCCGCAAACAATTTATTAAGGGATGAATAATCCCTCAATATAAATATCTCTCACTTATTTAAA,0.756,
CGACATGTCCCGCTTCTTTCATTAGTCCGTTACCAACTGTTTTGCTATATACATTTACCTTTTAAGAGGAGGAAT,,cleaved RNA product abundance [2]: 0.248
ACAGACGAAGGAGCCGCAAAGAAGTTATTAAGGGATGAATAATCGCTCAATATATATATCTCTCACTTATTTAAA,0.0772,cleaved RNA product abundance [3]: 0.113
